Experimental data taken from article PMC7400510, “Molecular basis of the lipid-induced MucA-MucB dissociation in Pseudomonas aeruginosa” (Communications Biology, 2020).

How the values were obtained:
MucB (pET22b-MucB-6His) [1] = biological target: T1, MucB (pET22b-MucB-6His) (P. aeruginosa, UniProt P38108 22-316); test: ITC
T1 chain: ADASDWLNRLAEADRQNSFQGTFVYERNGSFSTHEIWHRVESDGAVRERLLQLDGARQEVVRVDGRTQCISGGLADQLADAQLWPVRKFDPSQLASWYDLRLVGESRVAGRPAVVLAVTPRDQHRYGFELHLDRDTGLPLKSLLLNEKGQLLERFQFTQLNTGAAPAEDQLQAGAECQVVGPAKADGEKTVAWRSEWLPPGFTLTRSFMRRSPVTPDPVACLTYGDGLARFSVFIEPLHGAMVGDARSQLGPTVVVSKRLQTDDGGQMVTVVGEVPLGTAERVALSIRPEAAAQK

MucB (pET22b-MucB-6His) [2] = biological target: T2, MucB (pET22b-MucB-6His) (P. aeruginosa, UniProt P38108 22-316); test: ITC; MucB (20 µM) in the sample cell titrated with MucA^peri (200 µM), 19 injections; 25 mM Tris–HCl (pH 7.5), 150 mM NaCl, 25 °C; settings: both partners purified
T2 construct: source: E. coli BL21 (DE3), purified (Ni–NTA, Superdex-75)
T2 sequence: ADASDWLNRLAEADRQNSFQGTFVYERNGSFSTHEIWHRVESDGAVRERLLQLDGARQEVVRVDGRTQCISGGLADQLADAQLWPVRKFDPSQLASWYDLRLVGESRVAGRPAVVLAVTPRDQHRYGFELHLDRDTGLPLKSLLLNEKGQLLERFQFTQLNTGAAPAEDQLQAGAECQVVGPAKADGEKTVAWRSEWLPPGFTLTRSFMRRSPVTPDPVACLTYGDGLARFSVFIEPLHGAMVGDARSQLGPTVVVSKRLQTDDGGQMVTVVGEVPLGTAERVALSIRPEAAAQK

B1: periplasmic region of MucA (MucA^peri: residues 106–194), with His-tag (domain or fragment)
chain: YNQNDALPQMAQQGTTPQIALPQVKGPAVLAGYSEEQGAPQVITNSSSSDTRWHEQRLPIYLRQHVQQSAVSGTESALPYARAASLENR
notes: also called periplasmic domain of MucA; source: E. coli BL21 (DE3), purified (Ni–NTA, Superdex-75); not shown: His6, C-terminal, kept
MucB (pET22b-MucB-6His) [1]
  Ka: 633000 M⁻¹
MucB (pET22b-MucB-6His) [2]
  Kd: 1500 nM
